Results as given in paper PMC6937560.

Biological target: myeloperoxidase (MPO), mature form from neutrophils of healthy human donors (human) (UniProt P05164)
Experiment: native MS; about 3 uM MPO in 150 mM ammonium acetate pH 7.5, direct infusion, Micromass LCT; monomer (light + heavy chain) to dimer

- stoichiometry N: 2
Substance: myeloperoxidase (MPO), mature form from neutrophils of healthy human donors (from UniProt P05164 279-745) (enzyme)
